Test results reported in patent US10765761B2, “Nucleic acid condensing peptide, nucleic acid condensing peptide set, nucleic acid delivery carrier, nucleic acid delivery method, cell production method, cell detection method and kit” (KABUSHIKI KAISHA TOSHIBA, priority 2016, dated 2020).

Key:
[1] = test system: human normal mammary gland epithelial cells (HMEC); test: Transfection of nucleic acid (pAmp-CMV-nLuc) into cells by liposome, luminescence imaging, Example 5; type: cell-based; conditions: 48 hours after addition of the liposome, NanoLuc (FIG. 10)
From the text: As nucleic acid to be encapsulated in the liposome, pAmp-CMV-nLuc was used. The pAmp-CMV-nLuc is a reporter vector which contains a NanoLuc gene as the reporter gene. The pAmp-CMV-nLuc includes a CMV promoter as a gene expression promoter, and in its lower stream, a NanoLuc gene, IRES sequence and a replication initiation protein (LT, large T antigen) gene of simian virus 40 (SV40) which are liked in this order, and further, in a lower stream, a replication initiation sequence (SV40 ori) of SV40. Using this nucleic acid, the protamine of Example 3 and the peptides of the mHP-1 and mHP-3, a liposome solution was produced by a method similar to that of Example 3.
The liposome solution prepared as above was added to human normal mammary gland epithelial cells (HMEC) (Kurabo Industries). The HMEC used here was prepared by reviving from an HMEC freeze stock and thereafter culturing in an incubator of a 5%-CO2 atmosphere at 37 degrees Celsius for six to seven days. […]
48 hours after the addition of the liposome, a luminescence substrate (Nano-Glo Luciferase Assay Substrate and Promega) was added to the culture medium to dilute to 1/2000. This culture dish was set to LV200 (a luminescence imaging system of Olympus) and photographed. […]

[2] = Average particle diameter and Zeta potential of liposome (zetasizer), Example 3; type: physicochemical
Procedure: COATSOME/SS-20 (Nippon Oil & Fats), DOPE, cholesterol and DMG-PEG were dissolved into ethanol at a molar ratio of 5:3:1:0.3, to obtain a lipid solution. Two sets of lipid solutions (0.5 ml) put into tubes were prepared, and 0.5 ml of peptide-nucleic-acid solutions (8) (mHP-1) and (16) (mHP-3) of Example 1 were dropped thereto while stirring each lipid solution, thereby forming liposomes. 9 ml of 10 mM-HEPES (pH: 5.3) was added to each of the liposome solutions to make a total amount of 10 ml (each liposome solution will be referred to as “Complex” hereinafter). Further, on an assumption that the liposome is taken into an organism, and liposome solutions (which will be referred to as “HEPES replacement”) in which ethanol, which is the solvent of Complex is substituted by HEPES were produced. The HEPES replacements were produced by condensing each solution of Complex to 1.5 ml with an ultrafiltration film for 300 kDa, adding 8.5 ml of 100 mM-HEPES (pH: 7.4) to each, performing ultrafiltration, thereafter substituting the solvent with 10 mM-HEPES (pH: 7.4), and finally condensing to 0.5 ml. Further, the HEPES replacements were filtered for sterilization with a filter with a pore diameter of 0.45 μm to prepare solutions (which will be referred to as “0.45 μm” hereinafter).
The “peptide-nucleic-acid solution”, “HEPES substituent” and “0.45 micrometer”, each of which contain the protamine, mHP-1 or mHP-3 prepared as above were examined in terms of average particle diameter of liposome, Zeta potential and amount of encapsulation of plasmid. The average particle diameter and Zeta potential were measured using a zetasizer. The amount of encapsulation of plasmid was measured using a Quant-iT PicoGreen (registered trademark) dsDNA assay kit.

nucleic acid = test: Gel retardation assay: encapsulation of nucleic acid to liposome, Example 4; conditions: Complex with SDS 1% (liposome cleaved), 0.8% agarose gel (FIG. 9)
Procedure: The encapsulation of nucleic acid to liposome by the peptide of the embodiment was evaluated with a gel retardation assay.
As samples for the encapsulation evaluation, two sets of 8.0 μL of 10 mM-HEPES (pH: 7.0) were prepared and 1.0 μL of solutions of Complex respectively containing the mHP-1 or mHP-3 of Example 3 and sodium dodecyl sulfate (SDS, the final concentration: 1%) which cleavages liposome were added thereto, to prepare mixtures. In addition, as controls, a mixture to which 1.0 μL of a poly-glutamic-acid (PGA) solution was added in place of SDS, and a sample which contains neither SDS nor PGA were prepared. After the solutions were let stand still for 15 minutes at room temperature, 1.0 μL of an electrophoretic buffer (50%-sucrose solution) was added to each mixture, and they were mixed well, to carry out electrophoresis with a 0.8%-agarose gel. After the electrophoresis, the gel was immersed in an ethidium bromide solution to dye the nucleic acid and the gel was photographed while irradiating it with UV, thus detecting the nucleic acid.
FIG. 9 is a photograph taken by irradiating the agarose gel with UV.

Sequence | luminescent cells (reporter gene expressed) [1] | Average particle diameter (zAve) ([2]; Peptide-nucleic acid solution) | Zeta potential ([2]; Peptide-nucleic acid solution) | Average particle diameter (zAve) ([2]; liposome, 0.45 μm filtered) | Zeta potential ([2]; liposome, 0.45 μm filtered) | Average particle diameter (zAve) ([2]; liposome, HEPES substitution) | Zeta potential ([2]; liposome, HEPES substitution) | encapsulation of nucleic acid in liposome (nucleic acid)
RQRQRGGRRRRRR (Nucleic acid condensing peptide) [mHP-3] | luminescence was observed in more cells than those of the sample which used the protamine | 113.4 nm | −43.90 mV | 218.2 nm | −2.95 mV | 240.5 nm | −3.39 mV | encapsulated well
RQRQRYYRQRQRGGRRRRRR (Nucleic acid condensing peptide) [mHP-1] | luminescence was observed in most cells | 121.4 nm | −44.50 mV | 222.0 nm | −5.26 mV | 254.1 nm | −11.30 mV | encapsulated well
